From patent publication US11306156

Experiments:
[1] = target: D3H44 Fab heavy chain L124E_L143E_K145T, C-terminal ABD2-His6 tag; assay: LCCA co-expression, SPR tag read-out; DNA 1:3 norm. to 1:1; competing light chain m11
[2] = target: D3H44 Fab heavy chain L124R_Q179K, C-terminal ABD2-His6 tag; assay: as above
[3] = target: D3H44 Fab heavy chain L124E_L143E_K145M, C-terminal ABD2-His6 tag; assay: LCCA co-expression, SPR tag read-out; DNA 1:3 norm. to 1:1; competing light chain m13
[4] = target: D3H44 Fab heavy chain L124E_L143E_K145T, C-terminal ABD2-His6 tag; assay: as above
[5] = target: D3H44 Fab heavy chain L124R_Q179K, C-terminal ABD2-His6 tag; assay: as above
[6] = target: D3H44 Fab heavy chain L124E_L143D_K145M, C-terminal ABD2-His6 tag; assay: LCCA (co-expression, SPR read-out of light chain tags), L1:L2 DNA 1:3 normalised to 1:1; competitor m13
[7] = target: D3H44 Fab heavy chain L124E_L143D_K145T, C-terminal ABD2-His6 tag; assay: as above
[8] = target: D3H44 Fab heavy chain L124E_L143E_K145M, C-terminal ABD2-His6 tag; assay: as above
[9] = target: D3H44 Fab heavy chain L124R_Q179K, C-terminal ABD2-His6 tag; assay: as above
[10] = target: D3H44 Fab heavy chain L124E_L143D_K145T, C-terminal ABD2-His6 tag; assay: LCCA (co-expression, SPR read-out of light chain tags), L1:L2 DNA 1:3 normalised to 1:1; competitor m16
[11] = target: D3H44 Fab heavy chain L124E_L143E_K145T, C-terminal ABD2-His6 tag; assay: as above
[12] = target: D3H44 Fab heavy chain L124R_Q179K, C-terminal ABD2-His6 tag; assay: as above
[13] = target: D3H44 Fab heavy chain L124R_S186R, C-terminal ABD2-His6 tag; assay: as above
[14] = target: D3H44 Fab heavy chain L124E_L143E_K145T, C-terminal ABD2-His6 tag; assay: LCCA (co-expression, SPR read-out of light chain tags), L1:L2 DNA 1:3 normalised to 1:1; competitor m17
[15] = target: D3H44 Fab heavy chain L124R_S186K, C-terminal ABD2-His6 tag; assay: as above
[16] = target: D3H44 Fab heavy chain L124R_S186R, C-terminal ABD2-His6 tag; assay: as above
[17] = target: D3H44 Fab heavy chain L124E_L143D_K145M, C-terminal ABD2-His6 tag; assay: LCCA set 9176 (co-expression; SPR read-out of light-chain tags; L1:L2 DNA 1:3, normalized to 1:1); competing light chain m15
[18] = target: D3H44 Fab heavy chain L124E_L143D_K145T, C-terminal ABD2-His6 tag; assay: LCCA set 9214 (co-expression; SPR read-out of light-chain tags; L1:L2 DNA 1:3, normalized to 1:1); competing light chain m15
[19] = target: D3H44 Fab heavy chain L124E_L143D_K145T, C-terminal ABD2-His6 tag; assay: LCCA set 9217 (co-expression; SPR read-out of light-chain tags; L1:L2 DNA 1:3, normalized to 1:1); competing light chain m16
[20] = target: D3H44 Fab heavy chain L124E_L143E_K145M, C-terminal ABD2-His6 tag; assay: LCCA set 9257 (co-expression; SPR read-out of light-chain tags; L1:L2 DNA 1:3, normalized to 1:1); competing light chain m15
[21] = target: D3H44 Fab heavy chain L124E_L143E_K145M, C-terminal ABD2-His6 tag; assay: LCCA set 9259 (co-expression; SPR read-out of light-chain tags; L1:L2 DNA 1:3, normalized to 1:1); competing light chain m17
[22] = target: D3H44 Fab heavy chain L124E_L143E_K145M, C-terminal ABD2-His6 tag; assay: LCCA set 9263 (co-expression; SPR read-out of light-chain tags; L1:L2 DNA 1:3, normalized to 1:1); competing light chain m14
[23] = target: D3H44 Fab heavy chain L124E_L143E_K145T, C-terminal ABD2-His6 tag; assay: LCCA set 9298 (co-expression; SPR read-out of light-chain tags; L1:L2 DNA 1:3, normalized to 1:1); competing light chain m17
[24] = target: D3H44 Fab heavy chain L124R_Q179K, C-terminal ABD2-His6 tag; assay: LCCA set 9384 (co-expression; SPR read-out of light-chain tags; L1:L2 DNA 1:3, normalized to 1:1); competing light chain m17
[25] = target: D3H44 Fab heavy chain L124R_S186K, C-terminal ABD2-His6 tag; assay: LCCA set 9451 (co-expression; SPR read-out of light-chain tags; L1:L2 DNA 1:3, normalized to 1:1); competing light chain m15
[26] = target: D3H44 Fab heavy chain L124R_S186K, C-terminal ABD2-His6 tag; assay: LCCA set 9473 (co-expression; SPR read-out of light-chain tags; L1:L2 DNA 1:3, normalized to 1:1); competing light chain m16
[27] = target: D3H44 Fab heavy chain L124R_S186R, C-terminal ABD2-His6 tag; assay: LCCA set 9505 (co-expression; SPR read-out of light-chain tags; L1:L2 DNA 1:3, normalized to 1:1); competing light chain m15
[28] = target: D3H44 Fab heavy chain L124E_L143D_K145T, C-terminal ABD2-His6 tag; assay: LCCA co-expression, SPR tag read-out; DNA 1:3 norm. to 1:1; competing light chain m13
[29] = target: D3H44 Fab heavy chain L124R_S186K, C-terminal ABD2-His6 tag; assay: as above
[30] = target: D3H44 Fab heavy chain L124E_L143E_K145T, C-terminal ABD2-His6 tag; assay: LCCA (co-expression, SPR read-out of light chain tags), L1:L2 DNA 1:3 normalised to 1:1; competitor m13
[31] = target: D3H44 Fab heavy chain L124E_L143E_K145M, C-terminal ABD2-His6 tag; assay: LCCA (co-expression, SPR read-out of light chain tags), L1:L2 DNA 1:3 normalised to 1:1; competitor m16
[32] = target: D3H44 Fab heavy chain L124R_S186K, C-terminal ABD2-His6 tag; assay: as above
[33] = target: D3H44 Fab heavy chain L124E_L143E_K145M, C-terminal ABD2-His6 tag; assay: LCCA set 9266 (co-expression; SPR read-out of light-chain tags; L1:L2 DNA 1:3, normalized to 1:1); competing light chain m17
[34] = target: D3H44 Fab heavy chain L124E_L143E_K145T, C-terminal ABD2-His6 tag; assay: LCCA set 9316 (co-expression; SPR read-out of light-chain tags; L1:L2 DNA 1:3, normalized to 1:1); competing light chain m17
[35] = target: D3H44 Fab heavy chain L124E_L143E_K145T, C-terminal ABD2-His6 tag; assay: LCCA set 9320 (co-expression; SPR read-out of light-chain tags; L1:L2 DNA 1:3, normalized to 1:1); competing light chain m18
[36] = target: D3H44 Fab heavy chain L124E_L143E_K145T, C-terminal ABD2-His6 tag; assay: LCCA set 9323 (co-expression; SPR read-out of light-chain tags; L1:L2 DNA 1:3, normalized to 1:1); competing light chain m14
[37] = target: D3H44 Fab heavy chain L124R_Q179K, C-terminal ABD2-His6 tag; assay: LCCA set 9388 (co-expression; SPR read-out of light-chain tags; L1:L2 DNA 1:3, normalized to 1:1); competing light chain m17
[38] = target: D3H44 Fab heavy chain L124R_S186K, C-terminal ABD2-His6 tag; assay: LCCA set 9488 (co-expression; SPR read-out of light-chain tags; L1:L2 DNA 1:3, normalized to 1:1); competing light chain m18
[39] = target: D3H44 Fab heavy chain L124R_S186R, C-terminal ABD2-His6 tag; assay: LCCA set 9550 (co-expression; SPR read-out of light-chain tags; L1:L2 DNA 1:3, normalized to 1:1); competing light chain m14

D3H44 light chain Q124K_V133G_S176R_T178K, N-terminal HA or FLAG tag
H1L1:H1L2 normalized median ratio (% (ratio normalized to 100)) [1]: 89 | H1L1:H1L2 normalized median scalar value ln(r1/f1) [1]: 2.12 | H2L2:H2L1 normalized median ratio (% (ratio normalized to 100)) [2]: 4 | H1L1:H1L2 normalized median ratio (% (ratio normalized to 100)) [3]: 88 | H1L1:H1L2 normalized median scalar value ln(r1/f1) [3]: 1.95 | H1L1:H1L2 normalized median ratio (% (ratio normalized to 100)) [4]: 89 | H1L1:H1L2 normalized median scalar value ln(r1/f1) [4]: 2.08 | H2L2:H2L1 normalized median ratio (% (ratio normalized to 100)) [5]: 4 | H1L1:H1L2 normalized median ratio [6]: 85% | H1L1:H1L2 normalized median scalar value ln(r1/f1) [6]: 1.76 | H1L1:H1L2 normalized median ratio [7]: 84% | H1L1:H1L2 normalized median scalar value ln(r1/f1) [7]: 1.66 | H1L1:H1L2 normalized median ratio [8]: 85% | H1L1:H1L2 normalized median scalar value ln(r1/f1) [8]: 1.77 | H2L2:H2L1 normalized median ratio [9]: 4% | H1L1:H1L2 normalized median ratio [10]: 81% | H1L1:H1L2 normalized median ratio [11]: 89% | H1L1:H1L2 normalized median scalar value ln(r1/f1) [11]: 2.08 | H2L2:H2L1 normalized median ratio [12]: 4% | H2L2:H2L1 normalized median ratio [13]: 8% | H1L1:H1L2 normalized median ratio [14]: 87% | H1L1:H1L2 normalized median scalar value ln(r1/f1) [14]: 1.89 | H2L2:H2L1 normalized median ratio [15]: 7% | H2L2:H2L1 normalized median ratio [16]: 6% | H1L1:H1L2 normalized median ratio (H1L1 part) [17]: 83% | H1L1:H1L2 normalized median scalar value ln(r1/f1) [17]: 1.62 | H1L1:H1L2 normalized median ratio (H1L1 part) [18]: 85% | H1L1:H1L2 normalized median scalar value ln(r1/f1) [18]: 1.71 | H1L1:H1L2 normalized median ratio (H1L1 part) [19]: 82% | H1L1:H1L2 normalized median scalar value ln(r1/f1) [19]: 1.52 | H1L1:H1L2 normalized median ratio (H1L1 part) [20]: 84% | H1L1:H1L2 normalized median scalar value ln(r1/f1) [20]: 1.65 | H1L1:H1L2 normalized median ratio (H1L1 part) [21]: 84% | H1L1:H1L2 normalized median scalar value ln(r1/f1) [21]: 1.67 | H1L1:H1L2 normalized median ratio (H1L1 part) [22]: 88% | H1L1:H1L2 normalized median scalar value ln(r1/f1) [22]: 1.95 | H1L1:H1L2 normalized median ratio (H1L1 part) [23]: 88% | H2L2:H2L1 normalized median ratio (H2L1 part) [24]: 8% | H2L2:H2L1 normalized median ratio (H2L1 part) [25]: 7% | H2L2:H2L1 normalized median ratio (H2L1 part) [26]: 7% | H2L2:H2L1 normalized median ratio (H2L1 part) [27]: 6%

D3H44 light chain Q124K_V133G_S176R_T178R, N-terminal HA or FLAG tag
H1L1:H1L2 normalized median ratio (% (ratio normalized to 100)) [28]: 87 | H1L1:H1L2 normalized median ratio (% (ratio normalized to 100)) [3]: 88 | H1L1:H1L2 normalized median ratio (% (ratio normalized to 100)) [4]: 91 | H1L1:H1L2 normalized median scalar value ln(r1/f1) [4]: 2.34 | H2L2:H2L1 normalized median ratio (% (ratio normalized to 100)) [5]: 5 | H2L2:H2L1 normalized median ratio (% (ratio normalized to 100)) [29]: 7 | H1L1:H1L2 normalized median ratio [8]: 87% | H1L1:H1L2 normalized median scalar value ln(r1/f1) [8]: 1.9 | H1L1:H1L2 normalized median ratio [30]: 90% | H1L1:H1L2 normalized median scalar value ln(r1/f1) [30]: 2.15 | H2L2:H2L1 normalized median ratio [9]: 7% | H1L1:H1L2 normalized median ratio [10]: 87% | H1L1:H1L2 normalized median ratio [31]: 88% | H2L2:H2L1 normalized median ratio [32]: 7% | H1L1:H1L2 normalized median ratio (H1L1 part) [33]: 84% | H1L1:H1L2 normalized median scalar value ln(r1/f1) [33]: 1.67 | H1L1:H1L2 normalized median ratio (H1L1 part) [34]: 88% | H1L1:H1L2 normalized median scalar value ln(r1/f1) [34]: 2 | H1L1:H1L2 normalized median ratio (H1L1 part) [35]: 86% | H1L1:H1L2 normalized median scalar value ln(r1/f1) [35]: 1.82 | H1L1:H1L2 normalized median ratio (H1L1 part) [36]: 91% | H1L1:H1L2 normalized median scalar value ln(r1/f1) [36]: 2.34 | H2L2:H2L1 normalized median ratio (H2L1 part) [37]: 8% | H2L2:H2L1 normalized median ratio (H2L1 part) [38]: 9% | H2L2:H2L1 normalized median ratio (H2L1 part) [39]: 11%
